# According to patent publication US20180021429A1, “ANTICANCER AGENTS OR ANTIMETASTATIC AGENTS USING FSTL1 AND COMBINATION DRUG THEREOF” (PHARMA FOODS INTERNATIONAL CO., LTD., priority 2015, published 2018):
# Entries after “also recorded” stand apart in the source; their conditions may differ.
# T1: FSTL1 (Homo sapiens, UniProt Q12841)
# T1 sequence (Q12841 21-308): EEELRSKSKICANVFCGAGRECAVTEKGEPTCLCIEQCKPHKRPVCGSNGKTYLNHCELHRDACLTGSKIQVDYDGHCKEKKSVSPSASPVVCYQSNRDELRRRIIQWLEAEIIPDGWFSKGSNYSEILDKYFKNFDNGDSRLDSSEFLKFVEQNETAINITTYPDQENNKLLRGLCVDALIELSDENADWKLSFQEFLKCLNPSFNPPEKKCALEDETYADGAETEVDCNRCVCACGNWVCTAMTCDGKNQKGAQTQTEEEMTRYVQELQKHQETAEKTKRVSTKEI
# How the values were obtained:
# [1] = tested on: induction of MSCs having the ability to differentiate into adipocytes; assay: Ability to differentiate into adipocytes (Examples 14, 16); type: cell-based, mouse; conditions: Example 16, FIG. 10B/40B; antibody 2.5-20.0 μg/ml
# Method: The antibody clone (#6-55, #7, #10, #13, or […]) was evaluated for its activity by the same testing method as in Example 13. #6-55 was set as a positive control for activity. […] Mouse bone marrow cells were supplemented with FSTL1 and the predetermined concentration of each antibody and cultured for 8 days. 5×10^4 cells/well were separated from each culture system and evaluated for the ability to differentiate into adipocytes using an adipocyte differentiation reagent included in “Mesenchymal Stem Cell Functional Identification Kit (R&D Systems, Inc., Cat. No. SC010)”. For the evaluation method, the cells were supplemented with the adipocyte differentiation reagent and cultured for 8 days. Then, adipocytes per culture system were counted under a microscope for evaluation. […]
# In the same way as in Example 15, mouse bone marrow cells were supplemented with FSTL1 and the predetermined concentration of each antibody and cultured for 8 days. 5×10^4 cells/well were separated from each culture system and evaluated for the ability to differentiate into adipocytes using an adipocyte differentiation reagent included in “Mesenchymal Stem Cell Functional Identification Kit (R&D Systems, Inc., Cat. No. SC010)”. […] Then, adipocytes per culture system were counted under a microscope for evaluation (FIG. 10B). […]
# [2] = tested on: mouse lymphoma EL4; assay: In vivo lymphoma model (Example 23); conditions: intraperitoneal 10 mg/kg on days 3 and 6; vs control antibody
# Method: (§1) The drug efficacy of the anti-FSTL1 antibody was evaluated according to Examples 17 to 20 using mouse lymphoma EL4, which is a cancer type having enhanced FSTL1 expression.
# (§2) 1. Experiment Group (n=5) • 1. Mouse lymphoma EL4+control IgG (anti-DNP mAb) • 2. Mouse lymphoma EL4+anti-FSTL1 mAb (#6-55)
# (§3) • Day 0: transplantation of tumor cells (1×10^6 cells subcutaneously & 1×10^6 cells intravenously) • Day 3: intraperitoneal administration of the antibody (first dose, corresponding to 200 μg/mouse=10 mg/kg) • Day 6: intraperitoneal administration of the antibody (second dose, corresponding to 200 μg/mouse=10 mg/kg) • Day 15: various immunological assays
# (§4) • Effects on the growth of subcutaneous tumor (calculation of tumor volume by tumor size measurement): measured 3, 6, and 10 days after tumor implantation
# [3] = tested on: mouse lymphoma EL4; assay: In vivo, mouse lymphoma EL4 (Example 23); conditions: intraperitoneal 10 mg/kg on days 3 and 6, vs control antibody
# Method: as §1, §2, §3, §4
# [4] = tested on: Panc1-snail+; assay: Action of anti-FSTL1 antibody on Panc1-snail+ cells forced to express Snail (invasion, CCR2 and RANKL expression); type: cell-based, human; conditions: antibody 5 μg/ml
# Method: Cell invasion was evaluated in the presence of the anti-FSTL1 antibody (#6-55, 5 μg/ml) or a control antibody (aHema, 5 μg/ml) in a chamber using Panc1-snail+, a cell line forced to express Snail, instead of the FSTL1-stimulated tumor cells of the preceding paragraph.
# (§5) In this Example, Panc1-snail+ cells were cultured for 3 days in the presence of the added antibody. Then, the expression of CCR2 and RANKL among molecules known as bone metastasis markers was analyzed by flow cytometry. […] The anti-FSTL1 antibody presumably has inhibitory activity against cell invasion (FIG. 50D).
# as §5, with “82D).” for “50D).”
# [5] = biological target: T1, FSTL1; assay: Treg induction inhibitory activity using human peripheral blood cells stimulated with FSTL1; type: cell-based; design: purchased R&D Systems, Inc. 1694-FN-050; conditions: human PBMCs; FSTL1 5 ng/ml; antibody 5 μg/mL; 3 days
# Method: (§6) Human peripheral blood cells (1×10^6 cells) were stimulated using FSTL1 (5 ng/ml), supplemented with the antibody (5 μg/mL), and cultured for 3 days. The percentage of a Foxp3^+CTLA4^+ cell fraction (Exp. 1) or a CD4^+Foxp3^+CTLA4^+ cell fraction (Exp. 2) in CD4^+ T cells was analyzed as Treg cells by flow cytometry. The flow cytometry conditions are as follows.
# Blood was collected from a healthy person by the addition of a 1/10 amount of 4% sodium citrate, then layered on Ficoll (specific gravity: 1.090), and centrifuged (1500 rpm, 20 min, room temperature), and a cell fraction present in an intermediate layer was used as “PBMCs”. The antibody (5 μg/mL) was added to a system in which these PBMCs (1×10^6 cells) were cultured for 3 days under stimulation with FSTL1 (5 ng/ml) in a 24-well plate. […] Then, the percentage of a Foxp3+CTLA4+ cell fraction (Exp. 1) or a CD4^+Foxp3^+CTLA4^+ cell fraction (Exp. 2) in CD4+ T cells contained therein was analyzed as Treg cells using a flow cytometer FACScan (Becton, Dickinson and Company).
# as §6, with “a Foxp3^+ CTLA4^+” for “a Foxp3^+CTLA4^+”, “cytometry. […]” for “cytometry. The flow cytometry conditions are as follows.”
molecule,measurement,setting,value
"#6-55: chicken-mouse chimeric anti-FSTL1 antibody clone; variable regions SEQ ID NO: 783 (light), 785 (heavy) (antibody, V domains shown, mouse constant regions) VH: AVTLDESGGGLQTPGGALSLVCKGSGFTFTSVTMQWVRQAPGKGLEWVASVCSGSSTYYAPAVKGRATISRDNGQSTVRLQLSNLRPEDTGTYYCAKIAGRARWSCTSAAYNIDAWGHGTEVIVSS VL: ASTQPSSVSAIPGETVKITCSGGGNNYGWYQQRSPGSAPVTVIYYNDNRPSNIPSRFSGSTSGSTSTLTITGVQADDEAIYYCGSWDSNTDSGIFGAGTTLTVL",differentiation into adipocytes (induction of MSCs having the ability to differentiate into adipocytes),[1],inhibited by #6-55 in an antibody dose-dependent manner; also recorded: cells differentiating into adipocytes decreased in number by the addition of #6-55 in a dose-dependent manner
same,subcutaneous tumor growth,[2],strongly suppressed
same,subcutaneous tumor growth,[3],strongly suppressed
same,cell invasion,[4],suppressive activity was able to be confirmed
same,Treg induction caused by FSTL1 (Foxp3+CTLA4+ fraction in CD4+ T cells),[5],significantly suppressed
